Experimental findings from patent US20160369264A1 (HOWARD HUGHES MEDICAL INSTITUTE, published 2016) are described below.

Series [1] deals with the molecule itself. Description: self-assembly of trimers; negative-stain EM of E. coli pellet.
Series [2] concerns the molecule itself. Description: self-assembly of trimers; cell-free expression, negative-stain EM. As to the method: (A) Design p3Z_42 expressed using an in vitro expression kit. This negative-stain micrograph was made 4 hours after adding pure plasmid DNA of p3Z_42 to the kit components without purification. A Fourier transform is shown from a crystal in the micrograph showing the same P 3 2 1 lattice as visualized in p3Z_42 E. coli expression. (B) Fast dilution re-folded p4Z_9 protein. Large arrays form analogous to those seen from E. coli expressed protein. A Fourier transform is shown highlighting the square lattice. (C) Dialysis re-folded p4Z_9 protein. Large fibrous structures form with the same square array pattern as in E. coli expressed proteins. Fourier transform is shown highlighting the square repeat pattern. (D) Purified and concentrated protein from p6_9H soluble fractions. Arrays were not visualized at this point. […] (E) p6_9H array formation from material as in (d). These arrays formed after further concentration of protein as in (d) and heat application in a water bath. […] Fourier transform is shown with the same P 6 arrangement seen in the pellet sample. Scale bars=50 nm.

Series [3] deals with the molecule itself. Description: self-assembly of fusion trimers; negative-stain EM of E. coli pellet. As for the experimental part: (§1) Synthetic genes of each fusion were obtained and protein was expressed in Escherichia coli cells using a standard T7 based expression vector (Table 2). The protein expression was verified by sodium dodecyl sulfate polyacrylamide gel electrophoresis (SDS-PAGE) after separation of the soluble and insoluble cell portions. Samples of observed protein in the cellular pellets were analyzed for array formation by negative-stain Transmission Electron Microscopy (TEM). […] It is worth noting that 5/7 of the remaining fusions either shared a similar sequence and unknown but potentially similar structures (2 unpublished binding proteins) or were either the same molecular weight or much larger than the p3Z-42 monomer protein (3 proteins between ˜25-35 kDa).
On the basis of these initial hits, the general properties of the proteins that crystallized, specifically molecular weight, were evaluated. 16 further fusions were identified based either on smaller molecular weight sizes (13 proteins between 9 and 13 kDa) or other important targets close to this molecular weight range (3 proteins between 14 and 17 kDa). These second screen fusions were genetically fused and checked for array formation as before. […]

Series [4] deals with the molecule itself. Briefly: self-assembly of tetramers; negative-stain EM of E. coli pellet.
Series [5] concerns the molecule itself. Description: self-assembly of fusion trimers; negative-stain EM.
Series [6] deals with the molecule itself. Description: self-assembly of fusion trimers; negative-stain TEM of E. coli pellet. As to the method: as §1

B1: p3Z_11 (designed binder)
chain: MEEVVLITVPSESVARIIAKALVASRLAACVNIVPGLTSIYRWQGSVVEDQELLLLVKTTTHAFPKLKHTVKIIHPYTVPEIVALPIAEGNREYLDWLRENTGLE
notes: Designed self-assembling protein; Expressed from pet29b in E. coli; also called design p3Z_11
Take B1: the binding result in series [1] is “binds”.

B2: p3Z_42 (designed binder)
chain: MHNNRLQLSRLERVYQSEQAEKLLLAGVMLRDPARFDLRGSLTHGRDVEIDTNVIIEGNVSLGNRVKIGTGCVIKNSAIGDDCEISPYTVVEDAVLAAACTIGPFARLRPGAVLLEGAHVGNFVEMKKAVLGKGSKAGHLTYLGDAAIGDNVNIGAGTITCNYDGANKFTTIIGDDVFVGSDTQLVAPVSVGKGATIAAGTTVTRNVGANALAISRVPQTQKEGWRRPVKKKLE
notes: Designed self-assembling protein; beta-helix trimer (C3) that packs into a P 3 2 1 lattice; Expressed from pet29b in E. coli or with a cell-free kit; also called design p3Z_42
With B2, the binding result in series [2] is given as “binds”.

B3: p3Z-42 Human Acylphosphatase fusion (designed binder)
chain: MAEGNTLISVDYEIFGKVQGVFFRKHTQAEGKKLGLVGWVQNTDRGTVQGQLQGPISKVRHMQEWLETRGSPKSHIDKANFNNEKVILKLDYSDFQIVKGSGSGSGGMHNNRLQLSRLERVYQSEQAEKLLLAGVMLRDPARFDLRGSLTHGRDVEIDTNVIIEGNVSLGNRVKIGTGCVIKNSAIGDDCEISPYTVVEDAVLAAACTIGPFARLRPGAVLLEGAHVGNFVEMKKAVLGKGSKAGHLTYLGDAAIGDNVNIGAGTITCNYDGANKFTTIIGDDVFVGSDTQLVAPVSVGKGATIAAGTTVTRNVGANALAISRVPQTQKEGWRRPVKKK
As to B3, the binding result in series [3] is “binds”.

B4: p4Z_9 (designed binder)
chain: MEAVRAYELQLELQQIRTLRQSLELKAKELEYAAGIITSLKSERRIYRAFSDLLVEITKLEAIEHIARSIIVYVREIAKLAKRETEIMEELSKLRAPLSLE
notes: Designed self-assembling protein; tetramer (C4) that packs into a P 4 21 2 lattice; also called design p4Z_9
For B4, the binding result in series [4] was “binds”.

B5: p3Z-42 TDRD2 fusion (designed binder)
chain: MGSRSLQLDKLVNEMTQHYENSVPEDLTVHVGDIVAAPLPTNGSWYRARVLGTLENGNLDLYFVDFGDNGDCPLKDLRALRSDFLSLPFQAIECSGSGSGGMHNNRLQLSRLERVYQSEQAEKLLLAGVMLRDPARFDLRGSLTHGRDVEIDTNVIIEGNVSLGNRVKIGTGCVIKNSAIGDDCEISPYTVVEDAVLAAACTIGPFARLRPGAVLLEGAHVGNFVEMKKAVLGKGSKAGHLTYLGDAAIGDNVNIGAGTITCNYDGANKFTTIIGDDVFVGSDTQLVAPVSVGKGATIAAGTTVTRNVGANALAISRVPQTQKEGWRRPVKKK
On to B5, for which the binding result in series [5] is “binds”.

B6: p3Z-42 Ferrodoxin fusion (designed binder)
chain: MLTVEVEVKITADDENKAEEIVKRVIDEVEREVQKQYPNATITRTLTRDDGTVELRIKVKADTEEKAKSIIKLIEERIEEELRKRDPNATITRTVRTEVGSSWSGSGSGGMHNNRLQLSRLERVYQSEQAEKLLLAGVMLRDPARFDLRGSLTHGRDVEIDTNVIIEGNVSLGNRVKIGTGCVIKNSAIGDDCEISPYTVVEDAVLAAACTIGPFARLRPGAVLLEGAHVGNFVEMKKAVLGKGSKAGHLTYLGDAAIGDNVNIGAGTITCNYDGANKFTTIIGDDVFVGSDTQLVAPVSVGKGATIAAGTTVTRNVGANALAISRVPQTQKEGWRRPVKKK
Regarding B6, the binding result in series [6] is listed as “binds”.
